The record followed here is patent US8936925B2, “Reconstitution of 5-enolpyruvylshikimate-3-phosphate synthase activity by fragment complementation” (priority 2004, dated 2015).

One data set deals with EPSPS. On the procedure: (1) 95 μl substrate (50 mmol/L HEPES buffer (pH 7.5), 1 mmol/L PEP, 1 mmol/L S3P) was pre-warmed at 28 °C in an incubator for 5 min.
(2) 5 μl enzyme was added and the reaction was kept in an incubator at 28 °C for 1-20 min (depends on the enzyme activity). After that, 800 μl MG/AM/NP was added and the reaction was mixed for 1 min.
(3) 100 μl 34% sodium citrate was added and the reaction was mixed for half an hour. The OD660 was measured on a spectrometer.
The enzyme activities and the Km values to substrates of these three proteins were measured.

Data set [1] has as its system aroA-mutant E. coli strain AB2829. Put plainly: Growth in M63 restrictive media with different concentrations of glyphosate. It is filed as cell-based. The following applies: 50 mM glyphosate. Here is the method: aroA gene-mutant E. coli strains AB 2829 carrying plasmid pKU2004, pKU2006 or pKU2007 were inoculated in liquid LB medium and incubated overnight. A sample of the culture was centrifuged at 4000 rpm for 3 min and re-suspended in 0.9% physiological saline. After a further centrifugation, the supernatant was discarded. The pellets were re-suspended in physiological saline and inoculated at an initial concentration of OD600 0.04 into a liquid media comprising 0, 50 or 100 mM glyphosate for overnight culture at 37° C. Absorption (OD600) was measured at intervals.
In order to test whether the mutated EPSPS fragments perform functional complementation in vivo, plasmid pKU2105 and pKU2333 were constructed, which encode the N-terminal fragments N218-G96A and N227-G96A of E. coli EPSPS, respectively. They were introduced into aroA-mutant E. coli strain AB2829 (aroA−, from Yale University) together with their corresponding plasmids encoding C219 and C228 respectively. The growth was detected in the M63 restrictive media with different concentrations of glyphosate.

Read-outs that look alike come from different tables or passages of the source.

B1: EPSPS: E. coli wild type full length 5-enolpyruvylshikimate-3-phosphate synthase (protein, UniProt P0A6D3 1-427, looked up)
chain: MESLTLQPIARVDGTINLPGSKSVSNRALLLAALAHGKTVLTNLLDSDDVRHMLNALTALGVSYTLSADRTRCEIIGNGGPLHAEGALELFLGNAGTAMRPLAAALCLGSNDIVLTGEPRMKERPIGHLVDALRLGGAKITYLEQENYPPLRLQGGFTGGNVDVDGSVSSQFLTALLMTAPLAPEDTVIRIKGDLVSKPYIDITLNLMKTFGVEIENQHYQQFVVKGGQSYQSPGTYLVEGDASSASYFLAAAAIKGGTVKVTGIGRNSMQGDIRFADVLEKMGATICWGDDYISCTRGELNAIDMDMNHIPDAAMTIATAALFAKGTTTLRNIYNWRVKETDRLFAMATELRKVGAEVEEGHDYIRITPPEKLNFAEIATYNDHRMAMCFSLVALSDTPVTILDPKCTAKTFPDYFEQLARISQAA
modifications: full-length
notes: E. coli wild type full length 5-enolpyruvylshikimate-3-phosphate synthase
For the molecule B1, in the data set on EPSPS (PEP and S3P both 1.0 mM), the specific activity was 44 ± 2 mol/min/mg. Besides, the Michaelis-Menten constant (Km) (in general, the substrate concentration at which the rate is half of its maximum) in the data set with EPSPS (read-out: Km [PEP], S3P 1 mM, PEP varied from 50 to 200 μM) came to 14 ± 3 µM; in the data set on EPSPS (read-out: Km [S3P], PEP 1 mM, S3P varied from 50 to 200 μM) it was 45 ± 1 µM. Further, in data set [1], the “growth in M63 medium containing 50 mM glyphosate” value is “inhibited from growth”.
